Assay results published in US9823254B2, “Reversible chemoenzymatic labeling of native and fusion carrier protein motifs” (The Regents of the University of California, priority 2012, dated 2017).
“And” between values parts separate entries of the source, which are not always exact repeats. Equal entries are not always repeated.

Key:
ybbR = biological target: T1, ybbR (Bacillus subtilis, UniProt O34659); conditions: Sfp for ybbR; cited from earlier work
T1 sequence (O34659 whole entry, looked up): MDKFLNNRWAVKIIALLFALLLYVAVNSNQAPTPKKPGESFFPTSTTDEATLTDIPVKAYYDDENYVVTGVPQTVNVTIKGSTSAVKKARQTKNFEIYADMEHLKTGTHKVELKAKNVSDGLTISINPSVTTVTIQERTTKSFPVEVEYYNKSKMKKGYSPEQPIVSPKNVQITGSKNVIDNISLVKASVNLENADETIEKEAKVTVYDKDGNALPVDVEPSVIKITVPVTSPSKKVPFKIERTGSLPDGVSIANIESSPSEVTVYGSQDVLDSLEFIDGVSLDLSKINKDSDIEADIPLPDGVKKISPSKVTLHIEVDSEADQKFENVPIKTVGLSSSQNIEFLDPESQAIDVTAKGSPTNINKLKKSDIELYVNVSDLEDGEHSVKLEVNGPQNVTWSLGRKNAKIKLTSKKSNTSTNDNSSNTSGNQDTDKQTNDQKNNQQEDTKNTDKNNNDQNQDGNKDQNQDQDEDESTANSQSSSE

apo-E. coli AcpP = apo-E. coli AcpP (Escherichia coli, UniProt P0A6A8); conditions: Sfp for apo-E. coli AcpP; cited from earlier work
A. parasiticus PksA = biological target: T2, A. parasiticus PksA (Aspergillus parasiticus, UniProt Q12053); experiment: AcpH qualitative CP activity, gel-based, crypto-CP; type: biochemical; conditions: PKS; crypto-CP (coumarin-PPant), overnight, 37° C., 1 μM AcpH
T2 construct: made in house

P. aeruginosa AcpP = P. aeruginosa AcpP (Pseudomonas aeruginosa, UniProt O54439); conditions: FAS; crypto-CP (coumarin-PPant), overnight, 37° C., 1 μM AcpH
Procedure: (§1) Unless otherwise noted, all coumarin-PPant labeling proceeded as follows: apo-carrier protein or peptide at 50-200 μM were labeled in 50 mM Na-HEPES pH 7.5, 10 mM MgCl2, 8 mM ATP, 0.1 μM MBP-CoaA/D/E, 0.1 μM native Sfp, and 1.1 equivalents of coumarin-pantetheine at 37° C. overnight. Crypto-protein samples were repurified using standard IMAC techniques in pH 8 lysis buffer with Ni-NTA resin, and spin-concentrated/buffer exchanged to remove imidazole and concentrate with 0.5 mL 3 kDa MWCO cellulose filters. Crypto-peptide samples were purified with HPLC, lyophilized, and redissolved in 50 mM TrisCl pH 8.0 prior to analysis.
(§2) Following AcpH treatment, an equal volume of 2×SDS-PAGE loading dye was added to crypto-carrier proteins samples and heated 5 min at 90° C., and run on 12% or 15% SDS-PAGE. Gels were fixed in 50/40/10% water/methanol/acetic acid for 30 minutes, and washed with water three times before UV imaging. Holo-carrier protein reactions were analyzed with Urea-PAGE as previously described.^6 All protein gels were Coomassie stained for evaluating total protein. Crypto-peptides were evaluated on Urea-PAGE, and were imaged immediately after running with no gel fixing.

E. coli AcpP = E. coli AcpP (Escherichia coli, UniProt P0A6A8); conditions: FAS; crypto-CP (coumarin-PPant), overnight, 37° C., 1 μM AcpH
Procedure: as §1, §2

L majuscula JamC = biological target: T3, L majuscula JamC (Moorena producens, UniProt Q6E7K7); experiment: AcpH qualitative CP activity, gel-based, crypto-CP; type: biochemical; conditions: PKS; crypto-CP (coumarin-PPant), overnight, 37° C., 1 μM AcpH
T3 construct: made in house

P. falciparum ACP = experiment: AcpH qualitative CP activity, gel-based, crypto-CP; type: biochemical; conditions: FAS; crypto-CP (coumarin-PPant), overnight, 37° C., 1 μM AcpH
M. tuberculosis AcpM = M. tuberculosis AcpM (Mycobacterium tuberculosis, UniProt P9WQF3); conditions: FAS; crypto-CP (coumarin-PPant), overnight, 37° C., 1 μM AcpH
crypto-FITC-YbbR (3) = biological target: T4, crypto-FITC-YbbR (3) (Bacillus subtilis, UniProt O34659); experiment: FRET-quench microwell AcpH kinetics; type: biochemical; conditions: 37° C., FRET-quench microwell plate assay, [AcpH] 1 μm
T4 construct: made in house; host or cells: enzymatic labelling of FITC-ybbR peptide with Sfp and rhodamine-CoA
T4 sequence (O34659 whole entry, looked up): T1 sequence (O34659 whole entry, looked up)
Procedure: Preparation of rhodamine-labeled FITC-ybbR proceeded via reaction of 200 μM FITC-ybbR with 200 μM rhodamine WT-CoA synthesized as described previously^33 with 1 μM Sfp in 50 mM HEPES pH 7.5 and 10 mM MgCl2 for 2 hours at 37° C.
Rhodamine-labeled FITC-Ybbr as well as standard 1:1 apo-FITC-ybbR:rhodamine-CoA was subjected to an 11-point serial dilution in 50 mM TrisCl pH 8.0 to achieve final concentrations of 400-0.4 μM. […] Total reaction volumes were 50 μL and utilized a 96-well Costar 3694 plate (Corning, Lowell, Mass.). Following mixing, reactions were centrifuged for 2 minutes at 1500 rpm, and incubated at 37° C. over 4 hours in a HTS 7000 plus Bioassay Reader (Perkin Elmer, Waltham, Mass.) in kinetic mode. Comparison of enzyme reactions to buffer blank and 1:1 apo-FITC-ybbR:rhodamine-CoA standard allowed calculation of product formation and determination of Michaelis-Menten kinetics using GraphPad Prism.

V. cholerae VibB = biological target: T5, V. cholerae VibB (Vibrio cholerae serotype O1, UniProt P0C6D3); conditions: NRPS; crypto-CP (coumarin-PPant), overnight, 37° C., 1 μM AcpH
T5 sequence (P0C6D3 whole entry, looked up): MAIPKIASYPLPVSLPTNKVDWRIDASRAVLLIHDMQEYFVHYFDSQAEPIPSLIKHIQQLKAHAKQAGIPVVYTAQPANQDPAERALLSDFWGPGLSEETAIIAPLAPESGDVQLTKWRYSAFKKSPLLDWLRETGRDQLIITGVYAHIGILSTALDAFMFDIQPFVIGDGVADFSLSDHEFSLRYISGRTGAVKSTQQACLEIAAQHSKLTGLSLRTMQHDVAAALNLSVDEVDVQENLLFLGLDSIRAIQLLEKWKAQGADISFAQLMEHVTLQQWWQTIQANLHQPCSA

YbbR13 = experiment: AcpH activity with modified ybbR peptide, qualitative; type: biochemical; conditions: for AcpH activity with modified ybbR peptide: coumarin-PPant labeled
P. agglomerans AdmA = experiment: AcpH qualitative CP activity, gel-based, crypto-CP; type: biochemical; conditions: NRPS; crypto-CP (coumarin-PPant), overnight, 37° C., 1 μM AcpH
S. coelicolor ActACP = biological target: T6, S. coelicolor ActACP (Streptomyces coelicolor, UniProt Q02054); experiment: AcpH qualitative CP activity, gel-based, crypto-CP; type: biochemical; conditions: PKS; crypto-CP (coumarin-PPant), overnight, 37° C., 1 μM AcpH
T6 construct: made in house
T6 sequence (Q02054 whole entry, looked up): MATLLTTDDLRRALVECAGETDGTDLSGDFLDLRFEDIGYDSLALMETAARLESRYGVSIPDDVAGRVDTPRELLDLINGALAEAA

A. orientalis CepK = experiment: AcpH qualitative CP activity, gel-based, crypto-CP; type: biochemical; conditions: NRPS; crypto-CP (coumarin-PPant), overnight, 37° C., 1 μM AcpH
P. fluorescens PltL = experiment: AcpH qualitative CP activity, gel-based, crypto-CP; type: biochemical; conditions: NRPS; crypto-CP (coumarin-PPant), overnight, 37° C., 1 μM AcpH
holo-ACP (E. coli) = holo-ACP (E. coli) (Escherichia coli, UniProt P0A6A8); conditions: 37° C., HPLC detection, [AcpH] 1 (CyAcpH 0.005) μm
Procedure: Holo-E. coli AcpP was prepared as a serial dilution in 50 mM TrisCl, 250 mM NaCl, 30 mM MgCl2, and 2 mM MnCl2. […] CyAcpH was prepared at 10 nM in the same AcpH buffer. […] Reactions were transferred to prewarmed shaker at 37° C. and were quenched with 100 mM EDTA after 10 minutes. Samples were centrifuged and evaluated at 210 nm with HPLC using an acetonitrile gradient to determine apo-AcpP product formation. Michaelis-Menten kinetics were calculated using GraphPad Prism (GraphPad Software, La Jolla, Calif.).
E. coli holo-ACP was diluted into 50 mM TrisCl pH 8.0, 250 mM NaCl, 10% glycerol, 30 mM MgCl2 and 2 mM MnCl2 buffer to a concentration of 800 μM. […] AcpH was diluted from MOPS lysis buffer into 50 mM TrisCl pH 8.0, 250 mM NaCl, 10% glycerol and added to an equal volume of the holo-ACP serial dilution to initiate the reaction. Reaction tubes were transferred to a pre-warmed rack at 37° C. and shaken for the duration of the experiment. […] All samples were frozen at -80° C. until evaluated by HPLC.
Kinetics samples were mixed briefly with finger flicking, and centrifuged at 13000 rpm for 10 minutes at room temperature prior to transferring contents into HPLC vials. 20 μL of each reaction time point was injected on an Agilent 1100 series HPLC with column (Burdick & Jackson OD5 #9575, 25 cm×4.6 mm ID) using an acetonitrile/water gradient. Both water and acetonitrile contained 0.05% TFA. Method gradient for each injection: 0-5 min with 10% acetonitrile, 5-30 min with 10-100% acetonitrile, 30-35 min with 100% acetonitrile, 35-37 min with 100-10% acetonitrile, 37-40 min with 10% acetonitrile. HPLC-grade solvents (J. T. Baker, Phillipsburg, N.J.) were used exclusively. Apo- & holo-ACP protein standards were used to validate the retention times identified using 210 nm UV light at approximately 21 and 19 minutes, respectively. Peak integration was performed for all samples, and substrate turnover was calculated from the ratio of apo- to holo-ACP present in the HPLC trace and the known concentration of total ACP in reaction samples. Calculated rates for AcpH versus substrate concentration were obtained through Excel data analysis and graphed in Prism GraphPad using the “Michaelis-Menten” function for enzyme kinetics, with a zero data point added for substrate concentration of 0 μM*min-1 and 0 μM substrate for AcpH graphs.

P. agglomerans AdmI = experiment: AcpH qualitative CP activity, gel-based, crypto-CP; type: biochemical; conditions: PKS; crypto-CP (coumarin-PPant), overnight, 37° C., 1 μM AcpH
S. oneidensis AcpP = experiment: AcpH qualitative CP activity, holo-SoAcpP, Urea-PAGE; type: biochemical; conditions: FAS, Urea-PAGE gel-shift, shorter timescale
G. fujikuroi Pks4 = experiment: AcpH qualitative CP activity, gel-based, crypto-CP; type: biochemical; conditions: PKS; crypto-CP (coumarin-PPant), overnight, 37° C., 1 μM AcpH
M. tuberculosis MAS = experiment: AcpH qualitative CP activity, gel-based, crypto-CP; type: biochemical; conditions: FAS (FAS/PKS hybrid), overnight, 37° C., 1 μM AcpH
L majuscula JamF = experiment: AcpH qualitative CP activity, gel-based, crypto-CP; type: biochemical; conditions: PKS; crypto-CP (coumarin-PPant), overnight, 37° C., 1 μM AcpH
P. syringae SyrB1 = P. syringae SyrB1 (Pseudomonas syringae pv. syringae, UniProt Q52400); experiment: AcpH qualitative CP activity, gel-based, crypto-CP; type: biochemical; conditions: NRPS; crypto-CP (coumarin-PPant), overnight, 37° C., 1 μM AcpH

B1: Sfp: phosphopantetheinyl transferase (PPTase) from Bacillus subtilis (protein, UniProt P39135 1-224, looked up)
4'-phosphopantetheinyl …: MKIYGIYMDRPLSQEENERFMSFISPEKREKCRRFYHKEDAHRTLLGDVLVRSVISRQYQLDKSDIRFSTQEYGKPCIPDLPDAHFNISHSGRWVICAFDSQPIGIDIEKTKPISLEIAKRFFSKTEYSDLLAKDKDEQTDYFYHLWSMKESFIKQEGKGLSLPLDSFSVRLHQDGQVSIELPDSHSPCYIKTYEVDPGYKMAVCAAHPDFPEDITMVSYEELL
In the case of B1, the kcat (ybbR) is given as 11 and the kcat (apo-E. coli AcpP) is given as 5.8 min⁻¹.

B2: CyAcpH: acyl carrier protein hydrolase homolog from Cyanothece PCC 7822, YP13 003888700.1 (protein)
chain: MNYLAHLFLADPTPESQIGNLLGDFVKGKIDNLSSIYSPEIIRGVKTHQKIDIFTDHHPIFKTSKQRLNQNHRKFAGVIIDIYYDHFLAKNWLIYSEQDLDEFVANTYQMLEQHQLLLPEKLQKALPCMIQEDWLGSYRYFEGIDQTFSRLSRRIKRTNNIAFALEDLIQNYSQLEEDFLQFFPQLIDYVNLA
modifications: Cyanothece sp. PCC 7822
With B2 the “AcpH qualitative CP activity” value (A. parasiticus PksA) was “YES”, the “AcpH qualitative CP activity” value (P. aeruginosa AcpP) was “YES” and the “AcpH qualitative CP activity” value (E. coli AcpP) was “YES”. The “AcpH qualitative CP activity” value (L majuscula JamC) was “YES”, the “AcpH qualitative CP activity” value (P. falciparum ACP) was “YES” and the “AcpH qualitative CP activity” value (M. tuberculosis AcpM) was “YES”. It also gave a Km (crypto-FITC-YbbR (3)) of 21 µM, a Vmax (crypto-FITC-YbbR (3)) of 0.004 ± 0.004 min⁻¹ and a kcat (crypto-FITC-YbbR (3)) of 0.004 ± 0.004 min⁻¹. For the same molecule, the “AcpH qualitative CP activity” value (V. cholerae VibB) was “no”, the “qualitative activity for all ybbR constructs” value (YbbR13; Coumarin-PPant conjugated to all ybbR variations, Urea-PAGE) was “qualitative activity” and the “AcpH activity with modified ybbR peptide” value (YbbR13; YbbR13: N-term 6xHis, C-term GFP) was “YES”. The “AcpH activity with modified ybbR peptide” value (YbbR13; YbbR13: N-term FITC, C-term N/A) was “YES”, the “AcpH activity with modified ybbR peptide” value (YbbR13; YbbR13: N-term GFP, C-term 6xHis) was “YES” and the “AcpH activity with modified ybbR peptide” value (YbbR13; YbbR13 free peptide: N-term N/A, C-term N/A) was “YES”. The “AcpH qualitative CP activity” value (P. agglomerans AdmA) was “no”, the “AcpH qualitative CP activity” value (S. coelicolor ActACP) was “no” and the “AcpH qualitative CP activity” value (A. orientalis CepK) was “no”. The “AcpH qualitative CP activity” value (P. fluorescens PltL) was “no”, the Km (holo-ACP (E. coli)) was 58 ± 9 µM and the Vmax (holo-ACP (E. coli)) was 1.1 ± 0.1 min⁻¹. For the same molecule, the kcat (holo-ACP (E. coli)) was 211 min⁻¹ and 211 ± 11 min⁻¹, the “AcpH qualitative CP activity” value (P. agglomerans AdmI) was “no” and the “AcpH qualitative CP activity” value (S. oneidensis AcpP) was “YES^†”. The “AcpH qualitative CP activity” value (G. fujikuroi Pks4) was “no”, the “AcpH qualitative CP activity” value (M. tuberculosis MAS) was “no” and the “AcpH qualitative CP activity” value (L majuscula JamF) was “no”. For the same molecule, the “AcpH qualitative CP activity” value (P. syringae SyrB1) was “no”.
